Columns and labels:
[1] = molecular target: ChbG from Klebsiella pneumoniae (chitooligosaccharide deacetylase), wild type (Klebsiella pneumoniae) (UniProt A6T7U7); assay: SEC-MALS; kpChbG 5 mg/mL, Superdex 200 10/300, SEC buffer (20 mM Tris-HCl pH 8.0, 150 mM NaCl), 0.4 mL/min, 25 °C, DAWN-Treos MALS detector
[2] = molecular target: ChbG from Klebsiella pneumoniae (chitooligosaccharide deacetylase), wild type (Klebsiella pneumoniae) (UniProt A6T7U7); assay: SEC; Superdex 200 Increase 10/300 GL (24 mL), 20 mM Tris-HCl pH 8.0, 150 mM NaCl, 0.4 mL/min, 4 °C; wild type elutes at approximately 15 mL, E23K/D224K at approximately 17 mL
[3] = molecular target: kpChbG E23K/D224K double-mutant (Klebsiella pneumoniae) (UniProt A6T7U7)

Q: Which results are given for “ChbG from Klebsiella pneumoniae (chitooligosaccharide deacetylase), wild type (from UniProt A6T7U7 1-252) (enzyme)”?
A: stoichiometry N [1]: 2; stoichiometry N [2]: 2

Q: For “kpChbG E23K/D224K double-mutant (from UniProt A6T7U7 1-252) (enzyme)”, which deacetylation of N,N’-diacetylchitobiose measured by ESI-MS, dimerization disrupting mutant E23K/D224K against wild type [3] is on record?
A: > 50%
